From patent US20230416329A1 (INSTITUTE OF MATERIA MEDICA CHINESE ACADEMY OF MEDICAL …, published 2023) come the findings set out here.

First the molecules themselves.
B1: BT26 (peptide)
peptide: CGRAAKSIPPICF
modifications: disulfide 1-12 (inferred)
notes: synthetic
B2: PCSK9_2CH (peptide)
peptide: TVFTSWEEALDWVGFCTYSIPPQCYG
modifications: disulfide 16-24 (inferred)
notes: Contains an anti-chymotrypsin scaffold, with a disulfide bond between its two Cys
B3: PCSK9_7 (peptide)
peptide: TVFTSGCGRATKSIPPICFWEEYLDWV
modifications: disulfide 7-18 (inferred)
notes: Hybrid with the anti-trypsin scaffold BT9; A disulfide bond joins the two Cys of the scaffold
B4: PCSK9_14 (peptide)
peptide: GTNEALDNNCGRATKSIPPICFGTVFTS
modifications: disulfide 10-21 (inferred)
B5: PCSK9_8 (peptide)
peptide: TVFTSGCGRATKSIPPICFSWEEYLDWV
modifications: disulfide 7-18 (inferred)
notes: as for B3
B6: PCSK9_11 (peptide)
peptide: GTNEALDNNCGRATKSIPPICFVANDLK
modifications: disulfide 10-21 (inferred)
B7: PCSK9_9 (peptide)
peptide: TVFTSGRCTKSIPPICFWEEYLDWV
modifications: disulfide 8-16 (inferred)
notes: Hybrid with the anti-trypsin scaffold BT45; A disulfide bond joins the two Cys of the scaffold
B8: PCSK9_3CH (peptide)
peptide: FCTYSIPPQCYGGTVFTSWEEALDWV
modifications: disulfide 2-10 (inferred)
notes: as for B2
B9: PCSK9_3EC (peptide)
peptide: ICTASIPPICQGTVFTSWEEALDWV
modifications: disulfide 2-10 (inferred)
notes: Contains an anti-elastase scaffold, with a disulfide bond between its two Cys
B10: PCSK9_12 (peptide)
peptide: WEEALDWVCGRATKSIPPICFGYVANDLKI
modifications: disulfide 9-20 (inferred)
B11: PCSK9_10 (peptide)
peptide: GTNEALDNNCGRATKSIPPICFYVANDLKI
modifications: disulfide 10-21 (inferred)
B12: PCSK9_6 (peptide)
peptide: WEEYLDYVCGRATKSIPPICFGTVFTS
modifications: disulfide 9-20 (inferred)
notes: as for B3
B13: PCSK9_9EC (peptide)
peptide: TVFTSGICTASIPPICQWEEYLDWV
modifications: disulfide 8-16 (inferred)
notes: as for B9
B14: PCSK9_5CH (peptide)
peptide: WEEALDWVGFCTYSIPPQCYGTVFTS
modifications: disulfide 11-19 (inferred)
notes: as for B2
B15: PCSK9_6CH (peptide)
peptide: WEEYLDYVGFCTYSIPPQCYGTVFTS
modifications: disulfide 11-19 (inferred)
notes: as for B2
B16: PCSK9_5EC (peptide)
peptide: WEEALDWVGICTASIPPICQGTVFTS
modifications: disulfide 11-19 (inferred)
notes: as for B9
B17: PCSK9_6EC (peptide)
peptide: WEEYLDYVGICTASIPPICQGTVFTS
modifications: disulfide 11-19 (inferred)
notes: as for B9
B18: PCSK9_9CH (peptide)
peptide: TVFTSGFCTYSIPPQCYGWEEYLDWV
modifications: disulfide 8-16 (inferred)
notes: as for B2
B19: PCSK9_2EC (peptide)
peptide: TVFTSWEEALDWVGICTASIPPICQ-OH
modifications: disulfide 16-24 (inferred)
notes: as for B9
B20: EC12 (peptide)
peptide: LCTASIPPICQ
modifications: disulfide 2-10 (inferred)
B21: EC1 (peptide)
peptide: LCTASIPPQCY
modifications: disulfide 2-10 (inferred)
B22: EC18 (peptide)
peptide: LCTASIPPQCQ
modifications: disulfide 2-10 (inferred)
B23: EC29 (peptide)
peptide: YCTASIPPICQ
modifications: disulfide 2-10 (inferred)
B24: EC23 (peptide)
peptide: ICTASIPPICQ
modifications: disulfide 2-10 (inferred)
B25: EC22 (peptide)
peptide: VCTASIPPICQ
modifications: disulfide 2-10 (inferred)
B26: EC25 (peptide)
peptide: LCTASNPPICQ
modifications: disulfide 2-10 (inferred)

Bridge positions count the residues as written; N and C are the ends. Ends that are not written are not given here.

Sequence of porcine pancreatic elastase (P00772 27-266 limits assumed): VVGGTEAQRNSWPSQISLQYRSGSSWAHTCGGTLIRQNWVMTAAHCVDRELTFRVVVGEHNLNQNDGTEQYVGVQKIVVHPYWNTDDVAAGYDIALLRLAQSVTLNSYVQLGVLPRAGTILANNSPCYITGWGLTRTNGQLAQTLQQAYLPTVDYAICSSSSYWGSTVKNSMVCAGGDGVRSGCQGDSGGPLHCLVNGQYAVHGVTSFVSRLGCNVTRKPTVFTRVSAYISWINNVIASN

The first assay deals with T1, bovine trypsin (bovine, UniProt P00760 24-246). The experiment in a line: trypsin (50 nM) BApNA hydrolysis, OD405; peptide at 0.98 µM.
T1 sequence (P00760 24-246): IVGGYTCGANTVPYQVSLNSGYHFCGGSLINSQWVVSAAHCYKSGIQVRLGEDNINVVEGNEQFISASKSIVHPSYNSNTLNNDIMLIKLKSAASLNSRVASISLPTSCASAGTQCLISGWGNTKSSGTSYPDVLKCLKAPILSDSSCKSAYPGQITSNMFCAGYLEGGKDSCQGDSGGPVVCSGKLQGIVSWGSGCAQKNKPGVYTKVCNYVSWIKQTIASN
Consider B1, for which the “Residual trypsin activity (%)” value was determined as 94.5%.

The target of the next assay is T2, PCSK9 protein (UniProt Q8NBP7 31-692, limits assumed).
T2 construct: Kit reagent; also called proprotein convertase subtilisin/kexin type 9
In words: PCSK9-LDLR in vitro binding assay kit, OD450/540; peptide 50 µM, PCSK9 75 ng/mL; inhibition of PCSK9 binding to LDLR.
Consider B2, for which the “Inhibitory rate (%)” value came to 100%.
Consider B3, for which the “Inhibitory rate (%)” value is 80.7%.
Still for that read-out and setting: in the case of B4 it was -8.7%.
Consider B5, for which the “Inhibitory rate (%)” value was found to be 75.7%.
For B6, the “Inhibitory rate (%)” value stood at 3.6%.
For B7, the “Inhibitory rate (%)” value came out at 93.9%.
For B8, the “Inhibitory rate (%)” value came out at 99.2%.
Turning to B9, the “Inhibitory rate (%)” value is 99.6%.
Consider B10, for which the “Inhibitory rate (%)” value is 44.7%.
The same measure, in the same setting: for B11 the value was -18.5%; for B12, 87%.

For a further assay, the target named is T1, bovine trypsin. In words: trypsin (50 nM) BApNA hydrolysis, OD405; peptide at 0.0098 µM. As for the experimental part:
(§1) The substrates N-succinyl-Ala-Ala-Pro-Phe-p-nitroaniline (AAPFpNA), Nα—Benzoyl-L-arginine-4-nitroaniline hydrochloride (BApNA) and N-succinyl-[…] (AAApNA) are used in competitive binding reaction to determine the inhibitory activities against α-chymotrypsin, bovine trypsin, and porcine pancreatic elastase, respectively. Experiments for α-chymotrypsin and bovine trypsin inhibition were measured in 20 mM CaCl₂, 50 mM Tris-HCl buffer (pH 7.8), and that for porcine elastase inhibition was measured in 50 mM Tris-HCl buffer (pH 8.0). The concentration of the peptide was measured using optical density (OD) at 280 nm. The Michaelis constant (Kₘ) of the enzyme hydrolysis substrate is calculated from the initial rate of substrate hydrolysis at 405 nm. The absorbance value of the substrate was measured at 405 nm after complete hydrolysis. All data were processed using nonlinear regression.
(§2) (1) Added a total 190 μL of reaction buffer (20 mM CaCl₂ and 50 mM Tris-HCl, pH 7.8) along with different concentrations of anti-trypsin peptides (BTs) into the pre-cooled 96-well plate, followed by preheating at 37° C., and spined down at 500 rpm for 5 min. Next added 10 μL of 1 μM trypsin, incubated at 37° C., and then spined down at 500 rpm for 10 min. Finally, added 5 μL of 50 mM BApNA, and mixed by centrifugation at 500 rpm for 1 min. […] The experiment was performed in triplicate. The blank control only contained the reaction buffer and the substrate as the minimum absorption value (Min OD_{405 nm}). The negative control only contained the reaction buffer, the enzyme and the substrate as the maximum absorption value (Max OD_{405 nm}). […] (2) In the reaction system of 205 μL, the final concentrations of trypsin and BApNA were 50 nM and 1.22 mM, respectively. [0456] (3) Data statistics
As to B1, the “Residual trypsin activity (%)” value came out at 99.5%.

A further assay has as its target T1, bovine trypsin. The assay is described as above. The source holds these as a separate data set.
As for B1, the “Residual trypsin activity (%)” value turned out to be 99.5%.

A further assay has as its target T1, bovine trypsin. The experiment in a line: trypsin (50 nM) BApNA hydrolysis, OD405; peptide at 9.76 µM.
Consider B1, for which the “Residual trypsin activity (%)” value was found to be 0.4%.

A further assay concerns the target T1, bovine trypsin. In words: trypsin (50 nM) BApNA hydrolysis, OD405; peptide at 0.98 µM. The source holds these as a separate data set. As for the experimental part:
as §1, §2
For B1, the “Residual trypsin activity (%)” value was determined as 94.5%.

A further assay has as its target T1, bovine trypsin. In words: trypsin (50 nM) BApNA hydrolysis, OD405; peptide at 0.098 µM. As for the experimental part:
as §1, §2
B1: the “Residual trypsin activity (%)” value was 100%.

For the next assay, the target named is T2, PCSK9 protein. In words: PCSK9-LDLR in vitro binding assay kit, OD450/540; peptide 10 µM; inhibition of PCSK9 binding to LDLR. As for the experimental part: (§3) Solvent control: replace polypeptide with 5 μL solvent.
(§4) ^aThe concentration of samples in the table was 50 μM.
For the molecule B13, the “Inhibitory rate (%)” value was 94.3%.
Regarding B14, the “Inhibitory rate (%)” value was 99.4%.
On the same count and under the same terms, for B15 the value was 75.3%.
The same measure, in the same setting: for B16 the value was 85.2%.
Regarding B17, the “Inhibitory rate (%)” value is 96.7%.
As to B18, the “Inhibitory rate (%)” value came out at 98.4%.
As to B19, the “Inhibitory rate (%)” value is 73.1%.

The next assay concerns the target porcine pancreatic elastase (porcine, UniProt P00772 27-266). In words: elastase inhibition in vitro. As for the experimental part: as §1
(1) Added a total 190 μL of different concentrations of peptides (ECs) against elastase and reaction buffer (20 mM CaCl₂, 50 mM Tris-HCl buffer (pH 8.0)) into the pre-cold 96 well plate, followed by preheating at 37° C. for 5 min and centrifugated at 500 rpm for 1 min and allowed to stand for 4 minutes. […] Finally, added 2 μL of 100 mM AAApNA, and mixed by centrifugation at 500 rpm for 1 min. The plate was incubated at 37° C. for 60 min, and the absorbance value at 405 nm was measured. Three repetitions were made, and only reaction buffer and substrate were added in the blank control as the minimum absorption value (Min OD_{405 nm}); Only reaction buffer, enzyme and substrate were added in the negative control as the maximum absorption value (Max OD₄₀₅ nm). [0472] (2) In the 200 μL of reaction system, the final concentrations of elastase and AAApNA were 0.5 μM and 1 mM, respectively. [0473] (3) Data statistics
With B20, the binding result is given as “binds”.
As for B21, the binding result is listed as “binds”.
Still for that read-out and setting: in the case of B22 it was “binds”.
For B23, the binding result was “binds”.
On the same count and under the same terms, for B24 the value was “binds”.
As for B25, the binding result is on record as “binds”.
On to B26, for which the binding result was “binds”.

A further assay concerns the target T1, bovine trypsin. In words: trypsin (50 nM) BApNA hydrolysis, OD405; peptide at 97.56 µM. As for the experimental part:
as §1, §2
Turning to B1, the “Residual trypsin activity (%)” value was 0.1%.

Another assay has as its target T1, bovine trypsin. In words: trypsin (50 nM) BApNA hydrolysis, OD405; peptide at 0.098 µM. The source holds these as a separate data set.
Take B1: the “Residual trypsin activity (%)” value came to 100%.

Another assay concerns the target T2, PCSK9 protein. The experiment in a line: PCSK9-LDLR in vitro binding assay kit, OD450/540; peptide 100 µM; inhibition of PCSK9 binding to LDLR. As for the experimental part: as §3, §4
Take B13: the “Inhibitory rate (%)” value was 101%.
For the molecule B15, the “Inhibitory rate (%)” value was 93.7%.
Regarding B16, the “Inhibitory rate (%)” value is 95.3%.
On to B17, for which the “Inhibitory rate (%)” value came to 99.4%.
Take B18: the “Inhibitory rate (%)” value was 102%.
As to B19, the “Inhibitory rate (%)” value is 100%.

For the next assay, the target named is T1, bovine trypsin. In words: trypsin (50 nM) BApNA hydrolysis, OD405; peptide at 9.76 µM. The source holds these as a separate data set. As for the experimental part:
as §1, §2
As for B1, the “Residual trypsin activity (%)” value was found to be 0.4%.
